Experimental findings from patent publication US20130065278A1 (SPIBER TECHNOLOGIES, published 2013) are described below.

In one assay the target is T1, NT-REP4-CT.
T1 construct: also called NT4RepCT; NT-REP4-CT fiber
T1 chain: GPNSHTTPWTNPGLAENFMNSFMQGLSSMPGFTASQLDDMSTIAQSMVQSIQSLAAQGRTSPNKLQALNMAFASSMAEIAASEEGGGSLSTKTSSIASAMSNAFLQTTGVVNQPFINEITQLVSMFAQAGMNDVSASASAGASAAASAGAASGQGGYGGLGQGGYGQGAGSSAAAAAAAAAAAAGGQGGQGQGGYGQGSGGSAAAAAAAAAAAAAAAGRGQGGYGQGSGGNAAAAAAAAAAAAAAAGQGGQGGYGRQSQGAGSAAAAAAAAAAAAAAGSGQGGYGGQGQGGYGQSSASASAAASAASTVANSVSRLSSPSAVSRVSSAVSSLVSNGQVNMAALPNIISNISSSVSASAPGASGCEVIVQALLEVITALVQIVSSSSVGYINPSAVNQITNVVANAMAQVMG
Kind of assay: capture of soluble protein on fiber at pH 6, release at pH 7, SDS-PAGE; 300 mM NaCl decreased capture. The method, then:
(§1) Fibers (˜0.5 cm long, ˜50 μg) of NT-REP₄-CT (SEQ ID NO 20), NT₂-REP₄-CT (SEQ ID NO 23) and REPO-CT (SEQ ID NO 2, control) were submerged in 100 μl solution of 5 mg/ml soluble NTHis (SEQ ID NO 32) or NT₂-Brichos (SEQ ID NO 34) at pH 8 for 10 minutes. The pH was decreased by addition of 400 μl sodium phosphate buffer (NaP) to pH 6 and incubated for 10 minutes to allow assembly of soluble NT to the fiber. The fibers were transferred to 500 μl of NaP at pH 6, and washed twice. Finally, the fibers were transferred to 500 μl of NaP at pH 7, and incubated 10 minutes to allow release of soluble NT. The same was done in the presence of 300 mM NaCl in all pH 6 NaP buffers. Samples from the different solutions were analysed on SDS-PAGE.

Another assay concerns the target T2, NT2-REP4-CT.
T2 construct: also called NTNT-REP4-CT; HisNTNT4RepCT
T2 chain: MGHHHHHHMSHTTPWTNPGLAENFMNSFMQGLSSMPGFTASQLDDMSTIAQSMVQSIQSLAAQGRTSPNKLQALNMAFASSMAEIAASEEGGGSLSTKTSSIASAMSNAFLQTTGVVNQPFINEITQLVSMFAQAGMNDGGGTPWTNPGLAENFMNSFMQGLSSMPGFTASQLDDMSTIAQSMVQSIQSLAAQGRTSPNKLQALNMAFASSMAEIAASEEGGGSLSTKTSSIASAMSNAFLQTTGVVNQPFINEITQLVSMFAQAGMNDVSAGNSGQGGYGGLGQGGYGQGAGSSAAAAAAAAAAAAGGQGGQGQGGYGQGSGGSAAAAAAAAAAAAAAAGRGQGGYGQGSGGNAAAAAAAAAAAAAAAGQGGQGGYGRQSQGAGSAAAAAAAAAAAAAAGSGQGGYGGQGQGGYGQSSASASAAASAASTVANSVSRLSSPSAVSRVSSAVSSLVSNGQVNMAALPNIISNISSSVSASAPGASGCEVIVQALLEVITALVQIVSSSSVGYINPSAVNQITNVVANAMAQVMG
The assay is described as above. How it is done: as §1

B1: NT2-Brichos (other)
chain: MGHHHHHHMSHTTPWTNPGLAENFMNSFMQGLSSMPGFTASQLDDMSTIAQSMVQSIQSLAAQGRTSPNKLQALNMAFASSMAEIAASEEGGGSLSTKTSSIASAMSNAFLQTTGVVNQPFINEITQLVSMFAQAGMNDGGGTPWTNPGLAENFMNSFMQGLSSMPGFTASQLDDMSTIAQSMVQSIQSLAAQGRTSPNKLQALNMAFASSMAEIAASEEGGGSLSTKTSSIASAMSNAFLQTTGVVNQPFINEITQLVSMFAQAGMNDVSAGNSEHLVTTATFSIGSTGLVVYDYQQLLIAYKPAPGTCCYIMKIAPESIPSLEALTRKVHNFQMECSLQAKPAVPTSKLGQAEGRDAGSAPSGGDPAFLGMAVSTLCGEVPLYYI
notes: also called NT-NT-Brichos; HisNTNTBrichos
With B1, the binding result with NT-REP4-CT and in the assay with NT2-REP4-CT was “binds” in each case.

B2: NTHis (other)
chain: MSHTTPWTNPGLAENFMNSFMQGLSSMPGFTASQLDDMSTIAQSMVQSIQSLAAQGRTSPNKLQALNMAFASSMAEIAASEEGGGSLSTKTSSIASAMSNAFLQTTGVVNQPFINEITQLVSMFAQAGMNDVSASASAGASAAASAGAAALEHHHHHH
notes: also called soluble NTHis; NT protein
In the case of B2, the binding result with NT-REP4-CT and in the assay with NT2-REP4-CT was “binds” in each case.
